Test results taken from publication PMC6405639.

Assays:
[1] = target: Y2R_cysteine_deficient_eYFP (in HEK293 cells) (human) (UniProt P49146)
[2] = target: Y2R_cysteine_deficient_eYFP (in HEK293 cells) (human) (UniProt P49146); remark: listed apart in the source
[3] = target: Y2R_cysteine_deficient_eYFP (in HEK293 cells) (human) (UniProt P49146); test: radioligand binding; displacement of 60 pM [125I]-PYY from membrane preparations (0.75 μg protein) of transiently transfected HEK293 cells; HBSS with 1% BSA, room temperature, 3 h; filtration

Sequence of Y2R_cysteine_deficient_eYFP (in HEK293 cells) (human) (P49146 other isoform, or with tags, fused parts or gaps): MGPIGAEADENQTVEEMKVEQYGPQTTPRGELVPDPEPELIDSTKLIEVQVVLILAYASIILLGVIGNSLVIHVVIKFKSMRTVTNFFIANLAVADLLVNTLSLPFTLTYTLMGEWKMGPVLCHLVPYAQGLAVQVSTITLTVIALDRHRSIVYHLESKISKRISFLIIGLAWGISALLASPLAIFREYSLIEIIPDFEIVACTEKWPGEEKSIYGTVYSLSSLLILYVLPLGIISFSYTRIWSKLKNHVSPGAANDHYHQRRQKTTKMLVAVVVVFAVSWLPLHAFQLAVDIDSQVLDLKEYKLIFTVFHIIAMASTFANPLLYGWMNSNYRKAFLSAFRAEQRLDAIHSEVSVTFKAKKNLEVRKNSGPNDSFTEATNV

Substance	EC50 of IP-one accumulation in HEK293 cells co-transfected with the receptor and the chimeric G protein GαΔ6qi4myr [1]	Emax of IP-one accumulation, normalised to the Y2R/NPY curve [1]	potency in the IP-one accumulation assay [2]	IC50 [3]	Ki [3]
5(6)-TAMRA-Ahx(5-24)NPY (peptide)	3.4 nM	95%	3.6 nM	39 nM	11.2 nM
[K^22[(Ahx)2-biotin]Bpa^27]NPY (peptide)	4 nM	102%			
